# Reference: paper PMC5159498, “IQGAP1 Interaction with RHO Family Proteins Revisited” (The Journal of Biological Chemistry, 2016)
# T1: IQGAP1 GRD1-RGCT wild type (aa 877-1558) (human, UniProt P46940 877-1558)
# T1 construct: human IQGAP1, GRD and RGCT domains, lacks the last 99 amino acids, aa 877-1558; also called GRD1-RGCT^WT; IQGAP1^877-1558
# T1 sequence (looked up): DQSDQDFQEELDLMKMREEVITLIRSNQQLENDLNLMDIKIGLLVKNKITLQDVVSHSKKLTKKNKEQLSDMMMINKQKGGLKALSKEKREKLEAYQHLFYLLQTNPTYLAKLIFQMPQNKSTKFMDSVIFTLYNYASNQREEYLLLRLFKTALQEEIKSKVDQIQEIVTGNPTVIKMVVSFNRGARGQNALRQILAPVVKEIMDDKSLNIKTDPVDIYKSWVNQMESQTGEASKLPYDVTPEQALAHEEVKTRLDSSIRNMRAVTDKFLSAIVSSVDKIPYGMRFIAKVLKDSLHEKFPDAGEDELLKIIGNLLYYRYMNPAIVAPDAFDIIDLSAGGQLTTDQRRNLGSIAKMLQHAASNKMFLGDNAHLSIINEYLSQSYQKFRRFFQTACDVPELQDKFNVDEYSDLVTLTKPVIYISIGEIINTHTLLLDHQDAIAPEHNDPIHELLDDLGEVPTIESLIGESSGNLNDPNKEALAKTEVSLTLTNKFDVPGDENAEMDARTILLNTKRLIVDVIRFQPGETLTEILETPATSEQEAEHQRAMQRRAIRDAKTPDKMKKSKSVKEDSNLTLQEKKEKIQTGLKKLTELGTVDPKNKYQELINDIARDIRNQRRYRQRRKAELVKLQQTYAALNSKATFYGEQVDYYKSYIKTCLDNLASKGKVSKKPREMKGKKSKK
# T2: IQGAP1 GRD1-CT (aa 863-1657) (human, UniProt P46940 863-1657)
# T2 construct: human IQGAP1, GRD, RGCT and CT domains, aa 863-1657; The GST tag was cleaved 'if needed'; also called C-terminal half of IQGAP1; C-terminal 795 amino acids of IQGAP1
# T2 sequence (looked up): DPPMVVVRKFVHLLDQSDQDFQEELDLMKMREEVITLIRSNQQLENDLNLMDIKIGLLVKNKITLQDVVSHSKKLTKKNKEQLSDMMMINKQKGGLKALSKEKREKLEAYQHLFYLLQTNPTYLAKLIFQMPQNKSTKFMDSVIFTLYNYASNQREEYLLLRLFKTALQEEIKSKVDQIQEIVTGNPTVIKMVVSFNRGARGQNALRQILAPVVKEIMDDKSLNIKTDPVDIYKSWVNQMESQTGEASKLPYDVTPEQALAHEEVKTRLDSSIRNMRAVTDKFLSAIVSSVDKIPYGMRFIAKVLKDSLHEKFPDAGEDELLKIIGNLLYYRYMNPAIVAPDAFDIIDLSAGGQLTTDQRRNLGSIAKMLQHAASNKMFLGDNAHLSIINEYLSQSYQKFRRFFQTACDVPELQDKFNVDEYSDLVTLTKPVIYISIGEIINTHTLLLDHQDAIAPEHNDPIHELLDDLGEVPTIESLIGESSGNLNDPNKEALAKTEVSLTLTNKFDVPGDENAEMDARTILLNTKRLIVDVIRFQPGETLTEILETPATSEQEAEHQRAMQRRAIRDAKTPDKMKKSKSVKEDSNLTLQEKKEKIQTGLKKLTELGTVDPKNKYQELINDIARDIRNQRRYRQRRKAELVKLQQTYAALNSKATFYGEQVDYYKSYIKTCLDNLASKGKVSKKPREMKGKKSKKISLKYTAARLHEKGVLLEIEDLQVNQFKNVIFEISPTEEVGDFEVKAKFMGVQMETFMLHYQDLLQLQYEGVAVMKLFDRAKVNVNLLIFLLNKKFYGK
# Assays:
# Conditions in all cases: both partners purified
# [1] = target: T1, IQGAP1 GRD1-RGCT wild type (aa 877-1558); test: stopped-flow fluorometry; mGppNHp-bound RHO protein (0.2 μM) rapidly mixed with IQGAP1 variant (2 μM, or 2-12 μM for kon); koff by displacement with 10 μM non-fluorescent GppNHp-bound GTPase; Kd = koff/kon; 30 mM Tris-HCl pH 7.5, 10 mM KH2PO4/K2HPO4, 5 mM MgCl2, 3 mM DTT
# [2] = target: T2, IQGAP1 GRD1-CT (aa 863-1657); test: fluorescence polarisation; IQGAP1 variant titrated to mGDP-bound (inactive) RHO protein (1 μM), same conditions as with mGppNHp; 30 mM Tris/HCl pH 7.5, 150 mM NaCl, 5 mM MgCl2, 3 mM DTT, 25 °C
# [3] = target: T1, IQGAP1 GRD1-RGCT wild type (aa 877-1558); test: stopped-flow fluorometry; tGppNHp (tamra-GppNHp)-bound CDC42 or CDC42 Q61L (0.2 μM) rapidly mixed with IQGAP1 variant (2-10 μM GRD1-CT for Q61L); Kd = koff/kon; 30 mM Tris-HCl pH 7.5, 10 mM KH2PO4/K2HPO4, 5 mM MgCl2, 3 mM DTT
binder,measurement,setting,value
"CDC42 (aa 1-178) (domain or fragment, human CDC42, C-terminally truncated, aa 1-178; Loaded non-covalently with mGppNHp, tGppNHp, mGDP or non-fluorescent GppNHp; the nucleotide is named in the format of each assay; also called CDC42^WT; CDC42-mGppNHp) not shown",Kd,[1],2720 nM
same,Kd,[2],95100 nM
same,Kd,[3],1450 nM
